The text below walks through data of patent publication US20210403538A1.

Residue numbers refer to the chain shown, from its start.

Experiment [1] addresses MARV GP [change] (Lake Victoria marburgvirus) (UniProt Q1PD50).
Experiment [2] has as its target SUDV GP [change] (Sudan ebolavirus) (UniProt Q7T9D9).
Experiment [3] addresses BDBV GP [change] (Bundibugyo ebolavirus (BDBV), strain 200706291 Uganda). Put plainly: ELISA, coated recombinant GP ΔTM. (In general: An ELISA detects its analyte on a solid surface through an enzyme-linked reagent.)
Experiment [4] addresses EBOV GP [change] (Zaire ebolavirus (EBOV), strain Makona). Briefly: ELISA, coated recombinant GP ΔTM.

B1: EBOV-510 (antibody, V domains shown)
VH: QVQLQESGPGLVKPSQTLSLTCTVSGGSITSGDYYLTWVRQPPGKGLEWIGHIYYSGSTSYNPSLKSRLLMSVDTSKNQFSLRLSSVTAADTAVYYCARESDGDPSRLYFYFAMDVWGQGTLVTVSS
VL: QSALTQPASVSGSPGQSITISCTGTSSDVGGSYFVSWYQHHPGKAPKLMISEVSNRPSGVSNRFSGSKSGNTASLTISGLRTEDEADYYCSSYTSNTTLVFGGETKVTVL
Take B1: the EC50 in experiment [1] is more than 10 µg/mL; in experiment [2], 3.09 µg/mL; in experiment [3] it was 0.261 µg/mL; in experiment [4] it was 0.143 µg/mL.

B2: EBOV-507 (antibody, V domains shown)
VH: QVQLVQSGAEVKKPGASVKVSCKASGYTFNNYLINWVRQAPGQGLEWMGWINPHSGGTEYAQQFQGRLTVTRDTSIRTAYMELRGLTFDDSAMYYCWIWFRSETFDFWGQGTLVTVSS
VL: DIQMTQSPSAMSASVGDRVTITCRASQDISNYLAWFQQKPGQGPKRLIFEASILHSGVPSRFSGSGSGTEFTLTISSLQPEDFATYYCLQHNTYLTFGQGTKVEIK
Turning to B2, the EC50 in experiment [1] was more than 10 µg/mL; in experiment [2] it was 0.002 µg/mL; in experiment [3], 0.004 µg/mL; in experiment [4], 0.001 µg/mL.

B3: EBOV-442 (antibody, V domains shown)
VH: EVQLVESGGGLVKPGGSLRLSCTGSGGTGFTFKYAGMSWVRQAPGKGPEWIGRIKSRIDGGTTDYAAPVKDRFIVSRDDSRNTLYLQMNSLKTEDTAVYYCATGSGKGPSASFGESYYYYDFINVWGKGTTVTVSS
VL: ESVLTQSPGTLSLSPGERATLSCRASQSISRKYLAWYQQKPGQAPRLLIYGSSSRATGIPDRFSGSGSGTDFTLTISRLEPEDFAVYYCHQYESSPWTFGQGTKVEIK
Turning to B3, the concentration giving a half-maximal response (EC50) in experiment [1] was more than 10 µg/mL; in experiment [2], 0.006 µg/mL; in experiment [3], 0.003 µg/mL; in experiment [4], 0.001 µg/mL.

B4: EBOV-514 (antibody, V domains shown)
VH: QVQLQESGPGLVKPSQTLSLTCTVSGASITGGDDFWSWIRQPPGKGLEWIGFIHHSGNAYYRSSLKSRVHFSVDTSKDQFSLTLTSVTAADTAVYYCARDKAQAYGLLYHYHTDVWGKGTLVTVSS
VL: EIVMTQSPATLSVSPGERATLSCRASQSVSSNLAWYQQKPGLAPRLLIYGAFTRATDIPDRFSGSGSGTEFTLTISSLQSEDFAIYYCQYYNDWPPGYTFGQGTKLEIK
Regarding B4, the EC50 in experiment [1] was more than 10 µg/mL; in experiment [2] it was 0.015 µg/mL; in experiment [3], 0.01 µg/mL; in experiment [4], 0.007 µg/mL.

B5: EBOV-511 (antibody, V domains shown)
VH: QLQLQESGPGLVKPSETLSLSCTVSGDSISANNYFWGWIRQPPGKELEWIGSIHNSGSTYYNPSLKSRVTTSVDTSRTQFSLKLHSVTAADAAIYYCARHLAPISGVIFIPSFFDSWGQGTLVTVSS
VL: EIVMTQSPATLSVSPGERATLSCRASQSVSSNLAWYQQRPGQAPRLLIFDASTRATGVPARFSGSGSGTEFTLTISSLQSEDFALYYCQQYNDWPPRLTFGGGTKVEIK
Consider B5, for which the EC50 in experiment [1] was more than 10 µg/mL; in experiment [2] it was 0.387 µg/mL; in experiment [3], 0.289 µg/mL; in experiment [4], 0.094 µg/mL.

B6: EBOV-524 (antibody, V domains shown)
VH: QVQLVESGGGVVQPGGSLRLSCAASGFKFSTYGMNWVRQVPGQGLEWVSFVRHDGSNKYYSDSVKGRFTIFRDNSNNKLYLQMNNLRAEDTAVYYCAKDVLDCSRADCFIYYYYMDVWGKGTLVTVSS
VL: DIQMTQSPSSVSASPGDRVTITCRASQTISGWLAWYQQKPGKAPKLLIYDVSTLQSGVPSRFSGGGSGTEFTFTISSLQPEDYATYFCQQGNRIPLSFGGGTRVEIK
Turning to B6, the EC50 in experiment [1] is more than 10 µg/mL; in experiment [2] it was 0.701 µg/mL; in experiment [3], 0.146 µg/mL; in experiment [4], 0.123 µg/mL.

B7: EBOV-434 (antibody, V domains shown)
VH: QVQLVQSGAEVKKPGASVKVSCKASGYTFTGYYMFWVRQAPGQGLEWMGWINPNSGGTNYTQKFQGRVTMTRDTSISTAYMELSRLKSDDTAVYYCARDSGELLFVGSDVWGQGTLVTVSS
VL: DIQMTQSPSSVSASVGDRVTITCRASLDISYWLAWYQQKPGKAPKLLIYAASNLQSGVPSRFSGSGSGTDFTLTISSLQPEDFATYYCQQANSFPQTFGQGTRLELK
Take B7: the EC50 in experiment [1] was more than 10 µg/mL; in experiment [2] it was 1.11 µg/mL; in experiment [3], 0.415 µg/mL; in experiment [4] it was 0.304 µg/mL.

B8: EBOV-451 (antibody, V domains shown)
VH: EVQLVESGGSVVRPGGSLRLSCAASGFKFDEYGMSWVRQAPGKGLEWVSGITWNGGVRTYADSVKGRFTISRDNAKNSVYLQMKSLRGEDTALYYCVSWGERYDAYFDYWGQGTLVTVSS
VL: EIVLTQSPGSLSLSPGERATLSCRASQSVNSRYFAWYQQRPGQAPRLLIYATSTRATGIPDRFSGSGSGTDFTLTISRLEPEDFAVYSCQQYGSSPYTFGQGTKLEIK
Consider B8, for which the EC50 in experiment [1] was more than 10 µg/mL; in experiment [2] it was 0.003 µg/mL; in experiment [3], 0.007 µg/mL; in experiment [4], 0.001 µg/mL.

B9: EBOV-520 (antibody, V domains shown)
VH: QVQLQESGPGLGKPSETLSLSCTVSGASIRGYFWNWIRQPPGKGLEWIGYIHSTGSTNYNPSLKSRVTISVDTSKNQVSLNVNSVTAADTAVYFCARGAWNVATVYYYYGMDVWGQGTLVTVSS
VL: B8 VL with S10T, N30S, R32S, R40K, Y50S, A51G, T57P, S88F, S94N, P96L
For the molecule B9, the EC50 in experiment [1] was more than 10 µg/mL; in experiment [2], 0.136 µg/mL; in experiment [3] it was 0.072 µg/mL; in experiment [4], 0.012 µg/mL.

B10: EBOV-517 (antibody, V domains shown)
VH: EVQLVESGGGLVQPGGSLRLSCGASGFTFNKYWMTWVRQAPGKGLEWVANINQDGSEKYFAESVKGRFTVSRDNAKNSLYLQMNSLRAEDTAVYYCARGASIEVEILYYYHMDVWGKGTLVTVSS
VL: EIVMTQSPATLSVSPGERATLSCRASQSITTHLAWYQQKPGQAPRLLIYDTSTRATGIPARFSGSGSGTEFTLTISNMQSEDFAVYYCQQYHTWPPLTFGGGTKVEIK
In the case of B10, the EC50 is more than 10 µg/mL in experiment [1], 1.69 µg/mL in experiment [2], 0.865 µg/mL in experiment [3] and 0.042 µg/mL in experiment [4].

B11: EBOV-446 (antibody, V domains shown)
VH: QVQLVQSGAEVKKPGASVKVSCKASGYTFTDYYIYWVRQAPGQGLEWMGWLNPNSGGTDYAQKFQGRVTMTRDTSIRTAYMDLSRLRSDDTAVYYCARGRRHGAYVDWGQGTLVTVSS
VL: DIQLTQSPSFLSASVGDRVTITCRASQGISTYLAWYQQKPGKAPNLLIYDTSTLQSGVPSRFSGSASGTEFTLTISSLQPEDFATYYCQQLNFYLGGLTFGQGTRLEIK
Take B11: the EC50 is more than 10 µg/mL in experiment [1], 0.722 µg/mL in experiment [2], 0.002 µg/mL in experiment [3] and 0.009 µg/mL in experiment [4].

B12: EBOV-518 (antibody, V domains shown)
VH: QVTLKESGPTLVKPTQTLTLTCTFSGFSMNSSGMSVTWIRQPPGKALECLALIYWDDDKWYGPSLETRVTITKDASKNQVVLTMTNMDPVDTATYYCAHSGGLVAGAFDYWGQGTLVTVSS
VL: EIVMTQSPDSLTVSLGERATINCRSSQSVLYRVNSKNYLAWYQQKAGQTPKLIINWASTRESGVPDRFSGSGSGTDFTLTISSLQAEDVAVYYCQQYYNSPRTFGQGTKVEIK
As for B12, the concentration for a half-maximal effect (EC50) in experiment [1] came out at 0.78 µg/mL; in experiment [2], 0.352 µg/mL; in experiment [3], 2.63 µg/mL; in experiment [4] it was 0.283 µg/mL.

B13: EBOV-508 (antibody, V domains shown)
VH: QVQLVQSGAEVKKPGASVKVSCKASGYTFINYYMHWVRQAPGQGLEWMGTINPSTGRPNYAQKFQGRVTLTRDTSTTTVDMELSSLTSEDTAVYYCVSFQFYFDYWGQGTLVTVSS
VL: DIQMTQSPSAMSPSVGDRVTITCRASQGINNYLAWFQQKPGKVPKRLIYAASNLQSGVPSRFSGSGSGTEFTLTISSLQPEDFATYYCLQHNSYPWTFGQGTKVEIN
For the molecule B13, the EC50 was more than 10 µg/mL in experiment [1], 0.003 µg/mL in experiment [2], 0.005 µg/mL in experiment [3] and 0.002 µg/mL in experiment [4].

In general, EC50 refers to the concentration at which the effect is half-maximal.
